In patent US20240417436A1 (BRIGHT PEAK THERAPEUTICS, published 2024):
Read-outs that look alike come from different tables or passages of the source. Bridges are numbered along the chain shown (N, C = ends). Primed or numbered codes have the meaning given here. [ ]: non-standard residue; d: D form. Ygp = O-(8x polyethylene glycol-amino)-tyrosine; Yn3 = O-(9x polyethylene glycol-azido)-tyrosine; PEG9″ = 9x polyethylene glycol; hSer = N[C@@H](CCO)C(=O)O; Nle = CCCC[C@H](N)C(=O)O

Columns and labels:
[1] = molecular target: T1, IL-2 receptor βγ complex on pan T cells (human, UniProt P14784 27-551; P31785 23-369); experiment: cell-based or functional assay
T1 sequence (looked up) 1: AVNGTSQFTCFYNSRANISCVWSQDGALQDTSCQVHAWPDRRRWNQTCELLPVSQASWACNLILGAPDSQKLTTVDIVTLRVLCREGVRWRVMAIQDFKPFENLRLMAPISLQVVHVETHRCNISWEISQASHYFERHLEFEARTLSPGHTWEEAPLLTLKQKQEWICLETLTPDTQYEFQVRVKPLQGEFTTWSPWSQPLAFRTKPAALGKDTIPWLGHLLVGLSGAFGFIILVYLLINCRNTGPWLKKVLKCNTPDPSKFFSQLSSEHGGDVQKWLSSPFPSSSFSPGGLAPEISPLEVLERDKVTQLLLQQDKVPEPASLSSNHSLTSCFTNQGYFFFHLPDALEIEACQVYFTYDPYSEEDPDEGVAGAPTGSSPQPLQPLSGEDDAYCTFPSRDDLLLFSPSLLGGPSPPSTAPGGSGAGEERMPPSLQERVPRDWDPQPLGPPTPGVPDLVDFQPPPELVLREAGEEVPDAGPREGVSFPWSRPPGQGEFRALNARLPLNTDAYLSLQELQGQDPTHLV
T1 sequence (looked up) 2: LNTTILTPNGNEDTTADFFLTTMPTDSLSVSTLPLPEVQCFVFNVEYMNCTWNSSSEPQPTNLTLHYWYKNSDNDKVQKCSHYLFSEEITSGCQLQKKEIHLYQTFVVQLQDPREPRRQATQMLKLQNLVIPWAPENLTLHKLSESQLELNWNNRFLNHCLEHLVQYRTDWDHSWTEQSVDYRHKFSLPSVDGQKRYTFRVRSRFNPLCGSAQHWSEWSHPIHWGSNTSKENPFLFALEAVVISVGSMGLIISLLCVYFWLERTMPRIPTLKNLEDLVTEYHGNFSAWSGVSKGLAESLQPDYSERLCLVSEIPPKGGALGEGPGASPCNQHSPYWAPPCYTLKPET

[2] = molecular target: T1, IL-2 receptor βγ complex on pan T cells; experiment: cell-based or functional assay; remark: listed apart in the source

B1: CMP-162 (ligand)
chain: APTSSSTKKTQLQLEHLLLDLQKILNGINNYKNPKLTR[Nle]L[hSer][Yn3]KF[Ygp][Nle]PKKATELKHLQCLEEELKPLEEVL[hSer]LAQSKNFHLRPRDLISNINVIVLELKGSETTF[hSer]CEYADETATIVEFLNRWITFSQSIISTLT
modifications: not fully specified (residue 23); ends and bridges not checked; also: cleavable moiety on Lys23 side chain, structure not given here
- Average EC50, pSTAT5 assay in pan T cells, intact molecule [1]: 2.79 nM

B2: CMP-302 (ligand)
chain: GPLGLAGAPTSSSTKKTQLQLEHLLLDLQEILNGINNYKNPKLTR[Nle]L[hSer][Yn3]KF[Ygp][Nle]PKKATELKHLQCLEEELKPLEEVL[hSer]LAQSKNFHLRPRDLISNINVIVLELKGSETTF[hSer]CEYADETATIVEFLNRWITFSQSIISTLT
modifications: lactam N-30; ends not checked
- Average EC50, pSTAT5 assay in pan T cells, intact molecule [2]: 63.4 nM

B3: CMP-302, MMP2 cleaved (ligand)
chain: GPLGLAGAPTSSSTKKTQLQLEHLLLDLQEILNGINNYKNPKLTR[Nle]L[hSer][Yn3]KF[Ygp][Nle]PKKATELKHLQCLEEELKPLEEVL[hSer]LAQSKNFHLRPRDLISNINVIVLELKGSETTF[hSer]CEYADETATIVEFLNRWITFSQSIISTLT
modifications: ends and bridges not checked; also: cleaved by MMP2 within the cleavable peptide, macrocycle opened, cut site not given here
- Average EC50, pSTAT5 assay in pan T cells, MMP2 cleaved molecule [2]: 1.43 nM

B4: CMP-161, MMP2 cleaved (ligand)
chain: PLGLAGAPTSSSTKKTQLQLEHLLLDLQ[Nle]ILEGINNYKNPKLTR[Nle]L[hSer][Yn3]KF[Ygp][Nle]PKKATELKHLQCLEEELKPLEEVL[hSer]LAQSKNFHLRPRDLISNINVIVLELKGSETTF[hSer]CEYADETATIVEFLNRWITFSQSIISTLT
modifications: not fully specified; ends and bridges not checked; also: before cut, residues 1..32 linked via PEG9 (Glu32 side chain)
- Average EC50, pSTAT5 assay in pan T cells, MMP2 cleaved molecule [1]: 3.59 nM

B5: CMP-164, MMP2 cleaved (ligand)
chain: APTSSSTKKTQLQLEHLLLDLQKILNGINNYKNPKLTR[Nle]L[hSer][Yn3]KF[Ygp][Nle]PKKATELKHLQCLEEELKPLEEVL[hSer]LAQSKNFHLRPRDLISNINVIVLELKGSETTF[hSer]CEYADETATIVEFLNRWITFSQSIISTLT
modifications: not fully specified (residue 23, N-terminus); ends and bridges not checked; also: macrocycle (Lys23 side chain - cleavable peptide - glutaryl - Ala1) cut by MMP2, cut site not given here
- Average EC50, pSTAT5 assay in pan T cells, MMP2 cleaved molecule [2]: 0.61 nM

B6: CMP-161 (ligand)
chain: PLGLAGAPTSSSTKKTQLQLEHLLLDLQ[Nle]ILEGINNYKNPKLTR[Nle]L[hSer][Yn3]KF[Ygp][Nle]PKKATELKHLQCLEEELKPLEEVL[hSer]LAQSKNFHLRPRDLISNINVIVLELKGSETTF[hSer]CEYADETATIVEFLNRWITFSQSIISTLT
modifications: linker N-32 via PEG9″; ends not checked
- Average EC50, pSTAT5 assay in pan T cells, intact molecule [1]: 29.4 nM

B7: CMP-301 (ligand)
chain: APTSSSTKKTQLQLEHLLLDLQEILNGINNYKNPKLTR[Nle]L[hSer][Yn3]KF[Ygp][Nle]PKKATELKHLQCLEEELKPLEEVL[hSer]LAQSKNFHLRPRDLISNINVIVLELKGSETTF[hSer]CEYADETATIVEFLNRWITFSQSIISTLT
modifications: bridge N-23; not fully specified (N-terminus, bridges); ends not checked; also: cleavable peptide of the bridge not defined
- Average EC50, pSTAT5 assay in pan T cells, intact molecule [2]: 180 nM

B8: CMP-160, MMP2 cleaved (ligand)
chain: APTSSSTKKTQLQLEHLLLDLQ[Nle]ILEGINNYKNPKLTR[Nle]L[hSer][Yn3]KF[Ygp][Nle]PKKATELKHLQCLEEELKPLEEVL[hSer]LAQSKNFHLRPRDLISNINVIVLELKGSETTF[hSer]CEYADETATIVEFLNRWITFSQSIISTLT
modifications: ends and bridges not checked; also: cleavable moiety between Glu26 side chain and N-terminus (via PEG9) cut by MMP2, macrocycle opened, cut site not given here
- Average EC50, pSTAT5 assay in pan T cells, MMP2 cleaved molecule [1]: 2.21 nM

B9: CMP-163, MMP2 cleaved (ligand)
chain: APTSSSTKKTQLQLEHLLLDLQKILNGINNYKNPKLTR[Nle]L[hSer][Yn3]KF[Ygp][Nle]PKKATELKHLQCLEEELKPLEEVL[hSer]LAQSKNFHLRPRDLISNINVIVLELKGSETTF[hSer]CEYADETATIVEFLNRWITFSQSIISTLT
modifications: not fully specified (residue 23, N-terminus); ends and bridges not checked; also: macrocycle (Lys23 side chain - cleavable peptide - PEG4 - glutaryl - Ala1) cut by MMP2, cut site not given here
- Average EC50, pSTAT5 assay in pan T cells, MMP2 cleaved molecule [2]: 0.76 nM

B10: CMP-162, MMP2 cleaved (ligand)
chain: APTSSSTKKTQLQLEHLLLDLQKILNGINNYKNPKLTR[Nle]L[hSer][Yn3]KF[Ygp][Nle]PKKATELKHLQCLEEELKPLEEVL[hSer]LAQSKNFHLRPRDLISNINVIVLELKGSETTF[hSer]CEYADETATIVEFLNRWITFSQSIISTLT
modifications: not fully specified (residue 23); ends and bridges not checked; also: cleavable peptide on Lys23 cut by MMP2, remnant stays attached, cut site not given here
- Average EC50, pSTAT5 assay in pan T cells, MMP2 cleaved molecule [1]: 0.758 nM

B11: CMP-169, MMP2 cleaved (ligand)
chain: APTSSSTKKTQLQLEHLLLDLQEILNGINNYKNPKLTR[Nle]L[hSer][Yn3]KF[Ygp][Nle]PKKATELKHLQCLEEELKPLEEVL[hSer]LAQSKNFHLRPRDLISNINVIVLELKGSETTF[hSer]CEYADETATIVEFLNRWITFSQSIISTLT
modifications: ends and bridges not checked; also: cleavable moiety between Lys9 and Glu23 side chains cut by MMP2, macrocycle opened, cut site not given here
- Average EC50, pSTAT5 assay in pan T cells, MMP2 cleaved molecule [2]: 5.39 nM

B12: CMP-300, MMP2 cleaved (ligand)
chain: APTSSSTKKTQLQLEHLLLDLQEILNGINNYKNPKLTR[Nle]L[hSer][Yn3]KF[Ygp][Nle]PKKATELKHLQCLEEELKPLEEVL[hSer]LAQSKNFHLRPRDLISNINVIVLELKGSETTF[hSer]CEYADETATIVEFLNRWITFSQSIISTLT
modifications: ends and bridges not checked; also: cleavable moiety between Glu23 side chain and N-terminus cut by MMP2, macrocycle opened, cut site not given here
- Average EC50, pSTAT5 assay in pan T cells, MMP2 cleaved molecule [2]: 1.73 nM

B13: CMP-300 (ligand)
chain: APTSSSTKKTQLQLEHLLLDLQEILNGINNYKNPKLTR[Nle]L[hSer][Yn3]KF[Ygp][Nle]PKKATELKHLQCLEEELKPLEEVL[hSer]LAQSKNFHLRPRDLISNINVIVLELKGSETTF[hSer]CEYADETATIVEFLNRWITFSQSIISTLT
modifications: bridge N-23; not fully specified (N-terminus, bridges); ends not checked; also: cleavable peptide of the bridge not defined
- Average EC50, pSTAT5 assay in pan T cells, intact molecule [2]: 94.7 nM

B14: CMP-301, MMP2 cleaved (ligand)
chain: APTSSSTKKTQLQLEHLLLDLQEILNGINNYKNPKLTR[Nle]L[hSer][Yn3]KF[Ygp][Nle]PKKATELKHLQCLEEELKPLEEVL[hSer]LAQSKNFHLRPRDLISNINVIVLELKGSETTF[hSer]CEYADETATIVEFLNRWITFSQSIISTLT
modifications: ends and bridges not checked; also: cleavable moiety between Glu23 side chain and N-terminus cut by MMP2, macrocycle opened, cut site not given here
- Average EC50, pSTAT5 assay in pan T cells, MMP2 cleaved molecule [2]: 0.883 nM

B15: CMP-169 (ligand)
chain: APTSSSTKKTQLQLEHLLLDLQEILNGINNYKNPKLTR[Nle]L[hSer][Yn3]KF[Ygp][Nle]PKKATELKHLQCLEEELKPLEEVL[hSer]LAQSKNFHLRPRDLISNINVIVLELKGSETTF[hSer]CEYADETATIVEFLNRWITFSQSIISTLT
modifications: bridge 9-23; not fully specified (residue 9, bridges); ends not checked; also: cleavable peptide of the bridge not defined
- Average EC50, pSTAT5 assay in pan T cells, intact molecule [2]: 53.4 nM
